Assay results as given in paper PMC8119676, “Human ribonuclease 1 serves as a secretory ligand of ephrin A4 receptor and induces breast tumor initiation” (Nature Communications, 2021).

Legend:
EphA4 (Homo sapiens) = EphA4 (Homo sapiens) (UniProt P54764); conditions: cited from earlier work
endogenous EphA4 [1] = molecular target: T1, endogenous EphA4 (human (endogenous in MCF7, BT-549, KPL4), UniProt P54764-1 20-986); experiment: cell-based or functional assay
endogenous EphA4 [2] = molecular target: T1, endogenous EphA4; experiment: ELISA; saturation binding; EphA4 captured from BT-549 RIPA lysates on plates coated with EphA4 antibody; dilution series of recombinant hRNase 1 or ephrin-A5 in RIPA buffer overnight at 4 °C; biotin-conjugated detection antibodies; Kd estimated, Scatchard plot; conditions: one partner purified

T1 sequence (P54764 20-986): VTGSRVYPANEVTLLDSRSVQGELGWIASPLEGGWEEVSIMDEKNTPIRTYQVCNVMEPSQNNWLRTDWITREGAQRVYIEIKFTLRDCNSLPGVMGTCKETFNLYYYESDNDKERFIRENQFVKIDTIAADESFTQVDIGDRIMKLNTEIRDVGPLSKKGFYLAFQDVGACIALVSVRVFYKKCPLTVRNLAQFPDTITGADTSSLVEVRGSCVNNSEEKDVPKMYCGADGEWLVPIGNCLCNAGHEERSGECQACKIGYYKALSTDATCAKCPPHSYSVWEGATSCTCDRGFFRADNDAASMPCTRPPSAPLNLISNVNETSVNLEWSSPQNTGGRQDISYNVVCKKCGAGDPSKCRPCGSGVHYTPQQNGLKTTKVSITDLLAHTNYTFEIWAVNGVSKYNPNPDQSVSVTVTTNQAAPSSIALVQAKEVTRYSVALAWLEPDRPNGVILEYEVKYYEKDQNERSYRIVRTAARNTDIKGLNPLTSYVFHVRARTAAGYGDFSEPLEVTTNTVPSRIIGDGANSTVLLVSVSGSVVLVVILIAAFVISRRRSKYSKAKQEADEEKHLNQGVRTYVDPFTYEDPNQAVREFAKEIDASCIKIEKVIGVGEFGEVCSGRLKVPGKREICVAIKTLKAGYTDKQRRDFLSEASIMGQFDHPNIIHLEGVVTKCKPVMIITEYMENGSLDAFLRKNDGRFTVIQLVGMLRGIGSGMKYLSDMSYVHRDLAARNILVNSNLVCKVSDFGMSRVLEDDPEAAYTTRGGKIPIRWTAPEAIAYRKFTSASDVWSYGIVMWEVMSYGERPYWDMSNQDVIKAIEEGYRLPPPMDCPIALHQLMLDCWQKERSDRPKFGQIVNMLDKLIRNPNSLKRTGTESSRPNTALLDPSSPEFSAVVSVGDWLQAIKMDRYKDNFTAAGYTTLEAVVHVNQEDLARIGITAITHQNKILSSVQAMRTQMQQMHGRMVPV
Sequence of EphA4 (Homo sapiens) (P54764 20-547): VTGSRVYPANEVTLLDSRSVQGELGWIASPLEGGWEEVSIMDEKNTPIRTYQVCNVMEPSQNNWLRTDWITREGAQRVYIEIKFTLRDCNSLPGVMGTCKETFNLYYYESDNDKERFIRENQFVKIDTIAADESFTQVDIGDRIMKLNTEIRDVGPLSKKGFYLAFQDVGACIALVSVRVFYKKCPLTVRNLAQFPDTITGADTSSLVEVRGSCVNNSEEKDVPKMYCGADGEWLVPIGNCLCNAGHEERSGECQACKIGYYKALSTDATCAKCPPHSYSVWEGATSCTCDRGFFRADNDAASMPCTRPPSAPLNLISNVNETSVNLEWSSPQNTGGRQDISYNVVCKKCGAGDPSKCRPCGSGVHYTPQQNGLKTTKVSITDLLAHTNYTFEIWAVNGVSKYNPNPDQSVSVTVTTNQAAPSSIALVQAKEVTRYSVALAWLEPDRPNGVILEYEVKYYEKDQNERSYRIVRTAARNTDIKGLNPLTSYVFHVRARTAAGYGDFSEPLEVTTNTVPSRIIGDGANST

Ephrin-A5 (from UniProt P52803)
Kd (EphA4 (Homo sapiens)): < 0.01 µM

B1: recombinant hRNase 1 protein purified from HEK293 cells (enzyme, human, UniProt P07998 29-156, looked up)
chain: KESRAKKFQRQHMDSDSSPSSSSTYCNQMMRRRNMTQGRCKPVNTFVHEPLVDVQNVCFQEKVTCKNGQGNCYKSNSSMHITDCRLTNGSRYPNCAYRTSPKERHIIVACEGSPYVPVHFDASVEDST
modifications: N-linked glycosylation, heterogeneous (glycosylated and non-glycosylated bands; sites reported at Asn-34, Asn-76, Asn-88)
notes: human ribonuclease 1 (hRNase 1), bought recombinant protein; The ELISA methods say only 'recombinant hRNase 1'; also called human ribonuclease 1; source: bought: Sino Biological Inc. #13468-H08H, purified from HEK293 cells
EC50 of EphA4 phosphorylation (pY779-EphA4, WB) in BT-549 cells treated with hRNase 1 at various concentrations for 30 min (endogenous EphA4 [1]): 9.85 nM | Kd (endogenous EphA4 [2]): 0.0924 µM

B2: recombinant ephrin-A5 (ligand, UniProt P52803 21-203, looked up)
chain: QDPGSKAVADRYAVYWNSSNPRFQRGDYHIDVCINDYLDVFCPHYEDSVPEDKTERYVLYMVNFDGYSACDHTSKGFKRWECNRPHSPNGPLKFSEKFQLFTPFSLGFEFRPGREYFYISSAIPDNGRRSCLKLKVFVRPTNSCMKTIGVHDRVFDVNDKVENSLEPADDTVHESAEPSRGEN
notes: ephrin-A5, recombinant; 5.6 nM is printed as equivalent to 0.15 μg/ml, which implies about 27 kDa
Kd (endogenous EphA4 [2]): 0.0056 µM
